Assay: label from the status in PepcDB records

MNAADLTIWLVAGAGVLSFISPCSLPLYPSYLSYITGVSIQDLKENRGIMQKSAIIHTVFFMIGFSVIFYALGLSVSWIGITFSSNQKLIQQIGGIFIVLMGLFMTGLFQPKWLMAEKKVQYRSKSTGYIRSILVGMTYAAGWTPCVGPIFSAVLMLGATNPEGALLYITAYTLGFAVPFFVMAFFIGKVKWIVTYANVMMKIGGGMMIVTGILLYTNQMTKITAFFIRLFGGFTGF
protein production: failed

MTDAPLGRSAVYTILTTGYVGSTGPGVAATVSYVADGGRHVVFDPGMVASRDHILGPLAELGLGPDDITDVVLSHHHPDNTMNVGLFGRATVHDHKVEYLGDQWRNRDAEGYELTPSLRLIRTPGHSLEDITLLAGTDTGVVAFAGDLWWHSDGPADDPVAPDREVLRASRLRVLAAADLIVPGHGSPFKADITAPRLEHHHHHH
protein production: not failed

MNNFTYEKLHNNLQYLKLNTIEELLDNCLEIAARDSKTTMEVLDYLFEQEKKHREAAAIERRMKSAGFPVKKMLEEFDFEFQSSINKKVIEDLATLRFVHNAENIVLLGPPGVGKSHLAIALGIEAVKAGISVHFTNTGNLIERLKIANREGILEKKIRDLMKFKVLIIDEIGYLPFDDEGAHCLFQLISRRYEKSSTILTSNKSYGEWGEIFKDHVIAAALLDRILHHCTTINIKGESYRLKERKKQGIKTGLIRHNSTEILENLEHHHHHH
protein production: not failed

NRFIGYIQVACCCLLLCASCVRDGMDEDCNSYVRFVYDYNLEYIDLFHKQATKMNLYVFDEKGVFVTELKEESGAFAPDYLMTLPGAMAGRRYIFVAWSGLYGESYDKVTLTPGVSTLEDLEVSVNNLKTRIGGGVVDRELHLLWHGKQTEVSPQYNNDITTVSLLKNTKKFRIIMQMLDDSSIHVDDYDFRIISPNGRYNHENGLLGDETDEKVEYTAYHTEDDPETGAIAELNTLRLMTDTENRLVITHKSSGNVILDIPLNKYLNALRLQQYADIPLQEYLDRADKHGIILFFKGMDGNGNYISVDVQINGWLIRKQEVD
protein production: not failed

MVQMNNFLFDAQNIATPLMLVDLDDTLFQTHRRIVPQTDFKMVTTDKQGQALAYMNPIQQHFVQWLLHSTHLIPVTARSAEALSRVHLPFQYGAVCSHGGTVLNPDFSVNVDWHVQMQQALTSYQERQQILIDALQQQAINFGSIRTWVVEEQGLGLYIVAKQNTENDNPYAPNFLPELLNSLSSEVLEGFYFHLNGNNLALIPQPVSKANAARFVLQQFASQQRPILGFGDSLSDVEFLNLCHWWGMPNHSQLNRWVKHNLTQQYKQEGFYGDYQ
protein production: failed

SAPPKQSWEQAVDTLRDIGALNAAGQITELGRTLATLPTDPRLGASLLHCGGGAAPTIAALSLDARGDIPRAIAAMSHQQRFTREVARLAGFVP
protein production: failed

MLIALLLISYQLIKHGYRAADIKNLYTILEGEELRRQKDLSAKLRWGIVDEILWTIIVANGAILFTAHYVLIGLKILDLIAIFVVMLSGVMLYAPLAFLFLYPVVRAFEKNFPPSNPQFLLSHGLICTVSSLIVYEKLEQLWWDPLLVGFFWIAAGFVSFFTNRRFEVLVFLLLIAPLALLSVKCPGAILPILLAKSECSLRIQATFLVKLAVLIFASLAAVALVLQVFGYKSLRELSEKRKAAIKQGKYNPLRDPIIWIAWIMLTSLGLLIASFMERGEISPNML
protein production: failed

MFEAARFGDEISHTSALGGFLIGAALGIALVATVAIATFTCGFGVALLAGLAAGIGGSLLTAAGEAIGSMFSSPSGTITTASPNVFINSRKAARVEKSIGACDKHPGPVQIAEGSTNVFINSVAAARKGDKLTCGATISGGSDNVIIGGGTYRYLPVDDEVPEWLRTTVDVLMAIAGAAGGIAQLIKAGTQAGMKAVMPCALKFTAGFVAGEVASRYVVEPVARKAIGGLVGNPVDLTTGRKLIPDEIDFSLPGLMPIEWSRFYASDLTVDSVLGRGWVLPWEQSLRRQGAFIYLTDNQGREVPFVTLQPGQRIYNPHEQVYLVCTEGGHYILQTLDNLFFYFGEVPDTNTEVPLQRIENVLGHFLHFTRTPDGTLTDISATGGTRVHLHYDNPLGRLTDIKRVVNNEAVETLTQYRYDEHGQLSAVINRNGDTVRSFSYADGLMVTHSNALGLGCHYRWQTLGDKPRVVEHWTSDGEHYHFRYDLDSRTSWATDVLGRELEVQYNADHRVVASRDYGGERYAIELDEHGNMVGLTLPDGNRLQFKYDEFSRLLEETDPLGRKTQYEYHHLTTLVTQVSYPDGSTWRARFDDKGNLLAEFDALGQMTEYLNSDDGLPHTIIDATYKSKYLWWNTLAQVERYQDCSGKSTYYRYDERQHLVAVTDALNQTTTLARKPDGEVLRISHPDGTTESFTYNVYGQVLSHTDGKGQTTRLMRTARGLPSSRQDAKGQRVRYEYDKAMRLTALVNENNATYSFAYDASDRLSEEVRVDNLTRRFSYDVGGHLTRLDEIGYGENAERPERHTLFERDAIGRLIAKLNSDAQQRFTYDDGDRLLSIERQPTGIGKQLGITEEKLEYAYDLLGRLTKEISPDGTLGYEYDPLSNLTTLTLPDGRKVNHLYYGSGHLHQLNLDGQVISDMERDDLHREVYRTQGKLTSCFGYDAMGRKAWQFASTLPADKLSQVHNTGINTSLLVEHAYNPIHRRYQYDPAGELVRTLDKLRGEIKYEYEANGQLRSRDTGSLIGSEEFRYDPAANRLDFNARQFDKVKDNRIKQWRDQEYRYDPWGNLIEKRSGHSKLQHFSYDCENRLVRAETLVNGKLESQGEYRYDSLGRRIAKQAEINGEVEQKRFLWQGLRMLREETPGQSILYLYEPGSYAPLARVDQVEGEGQKVYYFHTDQIGTPLELTDSEGEIVWQATYRSWGTIETLSIKEVDQNLRFQGQYFDAETGLHYNTFRYYYSEVGRYVTQDPIGLDGGLNLYRYGQNPAGWIDPWGWECWSTARKNYWKAEAKAPTRAYSPTNLVRMAEGKAPKMTVEVISRKTDKISIREYALELHHNDIPQRVGGAGVHDSSNLLALTPWEHEAVDQFRHVGSDLIRVIKGVDVW
protein production: failed

MSDHFSIIKFDIGNSTMNAERKFLFACLIFALAIYAIHAFGLFDLLTDLPHLQTLIRQSGLFGYSLYILLFIIATLFLLPGSILVIAGGIVFGPFLGTLLSLIAATLASSCSFLLARWMGRDLLLKYVGHSHTFQAIEKGIARNGIDFLILTRLIPLFPYNIQNYAYGLTTIAFWPYTLISALTTLPGIVIYTVMASDLANEGITLRFILQLCLAGLALFILVQLAKLYARHKHVDLSASRRNPLTHPKNEG
protein production: failed

MGPFLMRILALGLVAGAALAQGVQAWLERGERLLSEGAYAEAVAAFEEVLRQDYGQFQAHLGLGVALVRLGRLEEARFAFDQMTRVFPDRYEGHFNLGQVYLRMGEAGKAAEAFAKAAAIAPREEAYLAWSGALLQEGKAREAAAVLERGLSPERSPAYRLALAQALYAAGEREAAVPHLYAALNREPGRAEAWDLLARVLAEVGLADRARREVERGLEAVQDPKGKALLLLRKGTLVEDPEPLWREALALDPDLWQAAYLLGRRRLEAGDLKEGLRWLQEAYAKGQDPEVALALAAAYLKAKDYANAYRYAKEAGPAGAFLQAQAAQGLGRRQEALKLLEGIASPQALALRGSLLLEEGQGEEAVAALQAAYEATRDPQVGVNLGAALVLVKRFGQAELVLREVLAKDPSSAAAWYNLGLALRGLGRQAEADRALRQAAALGSREARALLGR
protein production: failed

MKDLIKVQQKLIPDLIDKMYRRFYILSTISQNQPVGRRSLSEHMDMTERVLRSETDMLKKQELIRVKPTGMEITNEGTEVLAQLGEYFNVYSDDHKLASAIKDKFHIKDVHVIPGDSDSNRTVKREMGQQAGQLLEGILYEDAIVSVTGGSTMACVSESIHLLPFNVFFVPARGGLGENVVYQANTIASSMAQQAGGYYTTLYVPDNVSESTYDTLMLEPSVMHTLDKIKQANITIHGIGDALKMAHRRQSSQNVIDNLQHHQAVGEAFGYYFDAQGQIVHKVKTIGLQLEDLENKDFIFAVAGGQSKGEAIKAYLSIAPENTVLITDEAAAKVILQ
protein production: not failed

MNRIWLRAIILTASSALLAGCQFGGLNSLPLPGTAGHGEGAYSVTVEMADVATLPQNSPVMVDDVTVGSVAGIVAVQRPDGSFYAAVKLDLDKNVLLPANAVAKVSQTSLLGSLHVELAPPTDRPPTGRLVDGSRITEANTDRFPTTEEVFSALGVVVNKGNVGALEEIIDETHQAVAGRQAQFVNLVPRLAELTAGLNRQVHDIIDALDGLNRVSAILARDKDNLGRALDTLPDAVRVLNQNRDHIVDAFAALKRLTMVTSHVLAETKVDFGEDLKDLYSIVKALNDDRKDFVTSLQLLLTFPFPNFGIKQAVRGDYLNVFTTFDLTLRRIGETFFTTAYFDPNMAHMDEILNPPDFLIGELANLSGQAADPFKIPPGTASGQ
protein production: failed

MNSEQADILDLLSGHTDDTTIERLAFECLLTNMTDDRVVSLMNILGWQGDFNCFAIGGVPSASLASTSLAIRKAVRDLGGEHVVIGTYGTFLLALACQMGAVTPEVTCTAVMPAFSEDEPLYLSPVRSGVAGASHALRETMFSLQAAPALSTPSRPLRADELLPERALLGDDYAREELYRNVYQVLRGENPDDPTYLTVSTFLKYGSSLENTAKELNVHPNTVRYRLKRAAETTGWDATDPRDAYVLTTALAIGRMRDR
protein production: not failed

LQESEARFQAFMNNSPSASWITDDHGRMLYLSQTYVRTFQLPFDKVEDVTGKTVFELYTPEVAQPFLDNIHRVAQTQQILETIEKAPRLDGTLGDFLVYKFPLPATTGELFIGGVAVDISDKIRAEQALQKLNQELEAR
protein production: not failed

MNTRLNEPDLPGDIDIKDLDPLVLQDLKVLSKDNADAVAKHMIMAATWLADDPQLALRHARAAKDRAGRVSVVRETNGIAAYHAGEWKEALSELRAARRMSGGPGLIAVMADCERGLGRPEKAIELAREEDLSSLDQDNLIELAIVVAGARHDLGQHDSAIVELQKVNPSLKSTGFTHSRLSYAYADALVLAGRGDEAREWFQHAATLDEDGYLDAEERIEQLDNGNN
protein production: failed

MQQKLENIKFVITDVDGVLTDGQLHYDANGEAIKSFHVRDGLGIKMLMDADIQVAVLSGRDSPILRRRIADLGIKLFFLGKLEKETACFDLMKQAGVTAEQTAYIGDDSVDLPAFAACGTSFAVADAPIYVKNAVDHVLSTHGGKGAFREMSDMILQAQGKSSVFDTAQGFLKSVKSMGQ
protein production: not failed

MSQAHAAQRPNGAKEPANPTQGGRKAIIAAASANLAIAVTKAIAWALTGASSMLAEAIHSVADTANQVVLMMGGKESHKEADEDHPFGYETARYLSGFIVAIVIFTLGGLFALYEAYHKIGATLGGHPDELLDSQWWWVPLAVVMISLCAEGASLRTALKESSQDREGMTILQYIRKAKAPELPVVMLEDSAAVLGLIFAFLGVGLTLLTHNPIFDGIGSACIGILLVVVAGVLSREMKSLLEGESAAPESRKAVYDALIHSDGVDSVIYMKTVHLGPETILLAAKIAVDPTDSAFEVARIIDNAEASVRAAEPLVGPLFLEPDIRYGDKRIKDGEERPEDQS
protein production: failed

MTPAELISRLEEAWLNEKFSPELLENKSELVECVMEQLTHMEENLQRVRKGDLKASVHRMEIDRIRFVLSSFLRSRLKKIEKFFPHVLEKEKSRADGDPSFLSPEEFAFAKEYLANTEVYLRAVALKHMPPNLQSVDMMKAVPEPCLDSFVFLRVKEKQENILVEPETDEQREYVVDLDEGSQHLMRYRTIAPLVASGAVQLI
protein production: failed

MISRQQKMTFKEIKDGEMEERDILLTGFYNVRLNSVQEARLTYNLPNDQTVKFGFDGNGYSYGSDFWYIYNRTAQLGKEISSHLDENASKWIEEAGQKGYTTGNQAKVGAIACLPSYLSDAESSSHLAFVEYLNSDGSFIVSEMPSPNILNWRLIQPQSKMTFIYL
protein production: failed

MAAKTMDFAGPAVSTGLGGLGPTRVSGAALMATLLFLGAPLLFAGNMLAARMMQGVLPPFTLASARWALAALVLLPFVRRELFGQRRAAPGRWRALVLPAVLGGALSVGPQYWAAHFTSAGNIALVFAMTPLLVALLDRLAGGARLGAPALAGMGLAIAGIATASFQGSLARLLAFQINPGDLLAGLAALAWAGYTVATRRPRAGLSGLALLWGVAAGGALTLAPAAAVEWLVLGVPSLSREAVLGVAFLAIVPSIGAYLAYGRLIGLVGPVVAGTSMYLIPLYALALGAMVLGEALGRYHLAAAALVIGGVALSRWRGAAKVCG
protein production: failed
